Laboratory results published in US6306622, “cDNA encoding a BMP type II receptor” (The Procter & Gamble Co., dated 2001).
Several values for one entry are separate records, joined by “and”; a condition that tells them apart may be missing. Equal entries are not always repeated.

T1: mouse BMP receptor kinase protein (m-BRK-3) (mouse)
T1 chain: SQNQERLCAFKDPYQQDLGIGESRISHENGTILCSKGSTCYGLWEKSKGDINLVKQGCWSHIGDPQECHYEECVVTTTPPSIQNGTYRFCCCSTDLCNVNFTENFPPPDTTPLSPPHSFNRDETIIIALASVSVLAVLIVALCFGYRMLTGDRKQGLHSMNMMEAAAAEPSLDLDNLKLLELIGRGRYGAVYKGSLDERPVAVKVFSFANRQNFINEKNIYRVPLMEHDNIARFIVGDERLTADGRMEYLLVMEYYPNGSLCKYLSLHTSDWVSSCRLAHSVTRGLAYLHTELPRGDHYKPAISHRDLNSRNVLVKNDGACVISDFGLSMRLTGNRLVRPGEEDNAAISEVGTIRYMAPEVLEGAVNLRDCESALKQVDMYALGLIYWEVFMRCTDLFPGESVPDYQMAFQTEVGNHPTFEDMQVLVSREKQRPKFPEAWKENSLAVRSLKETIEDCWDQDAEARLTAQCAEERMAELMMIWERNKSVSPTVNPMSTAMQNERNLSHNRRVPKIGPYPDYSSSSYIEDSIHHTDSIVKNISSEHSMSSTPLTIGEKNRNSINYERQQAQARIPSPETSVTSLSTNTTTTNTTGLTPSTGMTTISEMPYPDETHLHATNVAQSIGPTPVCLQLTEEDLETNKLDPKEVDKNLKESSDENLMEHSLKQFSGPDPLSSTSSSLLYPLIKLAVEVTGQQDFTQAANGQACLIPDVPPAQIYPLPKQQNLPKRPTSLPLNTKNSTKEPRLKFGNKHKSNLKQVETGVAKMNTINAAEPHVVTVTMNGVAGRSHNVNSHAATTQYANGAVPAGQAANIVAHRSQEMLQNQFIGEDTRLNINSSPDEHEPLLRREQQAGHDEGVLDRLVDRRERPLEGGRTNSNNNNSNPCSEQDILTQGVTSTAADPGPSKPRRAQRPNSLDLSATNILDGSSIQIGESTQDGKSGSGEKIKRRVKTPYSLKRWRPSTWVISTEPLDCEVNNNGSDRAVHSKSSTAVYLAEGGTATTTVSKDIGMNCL

T2: [^125 I]-BMP-4 (Homo sapiens (Human), UniProt P12644, 125I label (iodinated with IODOBEADS or by the chloramine-T method))
T2 sequence: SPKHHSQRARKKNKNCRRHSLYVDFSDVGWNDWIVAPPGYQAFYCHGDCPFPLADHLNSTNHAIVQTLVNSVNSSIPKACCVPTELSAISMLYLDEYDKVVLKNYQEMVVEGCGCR


Legend:
[1] = target: T1, mouse BMP receptor kinase protein …; assay: whole cell binding of [125I]-BMP-4 to COS-1 cells transfected with pJT6-mBRK-3S or pJT6-mBRK-3L; conditions: remark: other sources report otherwise; scale: times the level of mock transfected cells
[^125 I]-BMP-4 = target: T2, [^125 I]-BMP-4; assay: covalent crosslinking (DSS) to co-transfected COS-1 cells, SDS gel
Description: COS-1 cells are transfected with the cDNA for m-BRK-3 using the construct pJT6-mBRK-3S, and/or with cDNAs for BRK-1 (using pJT4-J159F) or BRK-2 (using pJT3-BRK-2). The cells are then allowed to bind [^125I]-BMP-4, crosslinked with disuccinimidyl suberate, immunoprecipitated with antibodies to BRK-1 or BRK-2, and subjected to SDS gel electrophoresis. Antisera used are indicated below the lanes: PI, preimmune; 1379, for cells transfected with cDNA for BRK-1; 1380, for cells transfected with cDNA for BRK-2. Position of molecular weight standards is indicated on the left. Left to right, COS-1 cells transfected with BRK-1 plus m-BRK-3 (preimmune serum); BRK-1 alone; BRK-1 plus m-BRK-3; BRK-2 plus m-BRK-3; BRK-2 alone; and BRK-2 plus m-BRK-3 (preimmune serum).
COS-1 cells are transfected with the cDNA for m-BRK-3, using the construct pJT6-mBRK-3 S, and/or with cDNAs for BRK-1 (using pJT4-J159F) or BRK-2 (using pJT3-BRK-2) as described in Example 5. The transfected cells are incubated with [^125I]-BMP-4, crosslinked, and subjected to immunoprecipitation with antibodies to the appropriate type I receptor or preimmune serum as described in example 8, except that DSS is used as the crosslinking agent rather than disuccinimidyl glutarate. In cells transfected with cDNA for BRK-1 alone, a single band is precipitated by antibodies to BRK-1, migrating at an apparent molecular weight of 81 kD. […]

| specific binding, times the level seen with mock transfected cells [1] | binding result ([^125 I]-BMP-4) | Binder |
| --- | --- | --- |
| 4 and 4 to 7 |  | [^125 I]-BMP-4, P12644 (ligand, here or on the partner: 125I label (iodinated with IODOBEADS or by the chloramine-T method)) SPKHHSQRARKKNKNCRRHSLYVDFSDVGWNDWIVAPPGYQAFYCHGDCPFPLADHLNSTNHAIVQTLVNSVNSSIPKACCVPTELSAISMLYLDEYDKVVLKNYQEMVVEGCGCR |
|  | binds | m-BRK-3/BRK-1 complex (receptor) chain 1: SQNQERLCAFKDPYQQDLGIGESRISHENGTILCSKGSTCYGLWEKSKGDINLVKQGCWSHIGDPQECHYEECVVTTTPPSIQNGTYRFCCCSTDLCNVNFTENFPPPDTTPLSPPHSFNRDETIIIALASVSVLAVLIVALCFGYRMLTGDRKQGLHSMNMMEAAAAEPSLDLDNLKLLELIGRGRYGAVYKGSLDERPVAVKVFSFANRQNFINEKNIYRVPLMEHDNIARFIVGDERLTADGRMEYLLVMEYYPNGSLCKYLSLHTSDWVSSCRLAHSVTRGLAYLHTELPRGDHYKPAISHRDLNSRNVLVKNDGACVISDFGLSMRLTGNRLVRPGEEDNAAISEVGTIRYMAPEVLEGAVNLRDCESALKQVDMYALGLIYWEVFMRCTDLFPGESVPDYQMAFQTEVGNHPTFEDMQVLVSREKQRPKFPEAWKENSLAVRSLKETIEDCWDQDAEARLTAQCAEERMAELMMIWERNKSVSPTVNPMSTAMQNERNLSHNRRVPKIGPYPDYSSSSYIEDSIHHTDSIVKNISSEHSMSSTPLTIGEKNRNSINYERQQAQARIPSPETSVTSLSTNTTTTNTTGLTPSTGMTTISEMPYPDETHLHATNVAQSIGPTPVCLQLTEEDLETNKLDPKEVDKNLKESSDENLMEHSLKQFSGPDPLSSTSSSLLYPLIKLAVEVTGQQDFTQAANGQACLIPDVPPAQIYPLPKQQNLPKRPTSLPLNTKNSTKEPRLKFGNKHKSNLKQVETGVAKMNTINAAEPHVVTVTMNGVAGRSHNVNSHAATTQYANGAVPAGQAANIVAHRSQEMLQNQFIGEDTRLNINSSPDEHEPLLRREQQAGHDEGVLDRLVDRRERPLEGGRTNSNNNNSNPCSEQDILTQGVTSTAADPGPSKPRRAQRPNSLDLSATNILDGSSIQIGESTQDGKSGSGEKIKRRVKTPYSLKRWRPSTWVISTEPLDCEVNNNGSDRAVHSKSSTAVYLAEGGTATTTVSKDIGMNCL chain 2: QNLDSMLHGTGMKSDLDQKKPENGVTLAPEDTLPFLKCYCSGHCPDDAINNTCITNGHCFAIIEEDDQGETTLTSGCMKYEGSDFQCKDSPKAQLRRTIECCRTNLCNQYLQPTLPPVVIGPFFDGSIRWLVVLISMAVCIVAMIIFSSCFCYKHYCKSISSRGRYNRDLEQDEAFIPVGESLKDLIDQSQSSGSGSGLPLLVQRTIAKQIQMVRQVGKGRYGEVWMGKWRGEKVAVKVFFTTEEASWFRETEIYQTVLMRHENILGFIAADIKGTGSWTQLYLITDYHENGSLYDFLKCATLDTRALLKLAYSAACGLCHLHTEIYGTQGKPAIAHRDLKSKNILIKKNGSCCIADLGLAVKFNSDTNEVDIPLNTRVGTKRYMAPEVLDESLNKNHFQPYIMADIYSFGLIIWEMARRCITGGIVEEYQLPYYNMVPSDPSYEDMREVVCVKRLRPIVSNRWNSDECLRAVLKLMSECWAHNPASRLTALRIKKTLAKMVESQDVKI |
|  | binds | m-BRK-3/BRK-2 complex (receptor) chain 1: SQNQERLCAFKDPYQQDLGIGESRISHENGTILCSKGSTCYGLWEKSKGDINLVKQGCWSHIGDPQECHYEECVVTTTPPSIQNGTYRFCCCSTDLCNVNFTENFPPPDTTPLSPPHSFNRDETIIIALASVSVLAVLIVALCFGYRMLTGDRKQGLHSMNMMEAAAAEPSLDLDNLKLLELIGRGRYGAVYKGSLDERPVAVKVFSFANRQNFINEKNIYRVPLMEHDNIARFIVGDERLTADGRMEYLLVMEYYPNGSLCKYLSLHTSDWVSSCRLAHSVTRGLAYLHTELPRGDHYKPAISHRDLNSRNVLVKNDGACVISDFGLSMRLTGNRLVRPGEEDNAAISEVGTIRYMAPEVLEGAVNLRDCESALKQVDMYALGLIYWEVFMRCTDLFPGESVPDYQMAFQTEVGNHPTFEDMQVLVSREKQRPKFPEAWKENSLAVRSLKETIEDCWDQDAEARLTAQCAEERMAELMMIWERNKSVSPTVNPMSTAMQNERNLSHNRRVPKIGPYPDYSSSSYIEDSIHHTDSIVKNISSEHSMSSTPLTIGEKNRNSINYERQQAQARIPSPETSVTSLSTNTTTTNTTGLTPSTGMTTISEMPYPDETHLHATNVAQSIGPTPVCLQLTEEDLETNKLDPKEVDKNLKESSDENLMEHSLKQFSGPDPLSSTSSSLLYPLIKLAVEVTGQQDFTQAANGQACLIPDVPPAQIYPLPKQQNLPKRPTSLPLNTKNSTKEPRLKFGNKHKSNLKQVETGVAKMNTINAAEPHVVTVTMNGVAGRSHNVNSHAATTQYANGAVPAGQAANIVAHRSQEMLQNQFIGEDTRLNINSSPDEHEPLLRREQQAGHDEGVLDRLVDRRERPLEGGRTNSNNNNSNPCSEQDILTQGVTSTAADPGPSKPRRAQRPNSLDLSATNILDGSSIQIGESTQDGKSGSGEKIKRRVKTPYSLKRWRPSTWVISTEPLDCEVNNNGSDRAVHSKSSTAVYLAEGGTATTTVSKDIGMNCL chain 2: RKEDSEGTAPAPPQKKLSCQCHHHCPEDSVNSTCSTDGYCFTIIEEDDSGGHLVTKGCLGLEGSDFQCRDTPIPHQRRSIECCTGQDYCNKHLHPTLPPLKNRDFAEGNIHHKALLISVTVCSILLVLIIIFCYFRYKRQEARPRYSIGLEQDETYIPPGESLKDLIEQSQSSGSGSGLPLLVQRTIAKQIQMVKQIGKGRYGEVWMGKWRGEKVAVKVFFTTEEASWFRETEIYQTVLMRHENILGFIAADIKGTGSWTQLYLITDYHENGSLYDYLKSTTLDTKGMLKLAYSSVSGLCHLHTGIFSTQGKPAIAHRDLKSKNILVKKNGTCCIADLGLAVKFISDTNEVDIPPNTRVGTKRYMPPEVLDESLNRNHFQSYIMADMYSFGLILWEIARRCVSGGIVEEYQLPYHDLVPSDPSYEDMREIVCIKRLRPSFPNRWSSDECLRQMGKLMMECWAHNPASRLTALRVKKTLAKMSESQDIKL |
